The values below come from patent US20140179593A1 (published 2014).

For orientation: Kd means the constant that tells how readily two partners part at equilibrium.

The target in experiment [1] is T1, yE1 for yNedd8 (Ula1-Uba3) (Saccharomyces cerevisiae, UniProt Q12059 1-462, limits assumed).
T1 construct: Heterodimeric E1 expressed in E. coli as described in earlier publications
T1 sequence 1: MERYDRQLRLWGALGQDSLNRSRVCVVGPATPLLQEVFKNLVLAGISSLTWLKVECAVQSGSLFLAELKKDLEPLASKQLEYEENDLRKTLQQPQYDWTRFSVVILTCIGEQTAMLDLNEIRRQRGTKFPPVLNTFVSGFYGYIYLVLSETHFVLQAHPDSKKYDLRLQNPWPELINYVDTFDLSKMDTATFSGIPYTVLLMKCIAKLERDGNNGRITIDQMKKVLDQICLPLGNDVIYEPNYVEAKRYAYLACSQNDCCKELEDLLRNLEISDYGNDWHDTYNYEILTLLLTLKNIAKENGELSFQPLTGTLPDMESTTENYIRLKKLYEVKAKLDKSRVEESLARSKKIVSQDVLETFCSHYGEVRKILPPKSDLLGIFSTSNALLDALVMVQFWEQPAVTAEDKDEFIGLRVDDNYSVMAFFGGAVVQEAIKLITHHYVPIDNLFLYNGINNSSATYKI
T1 sequence 2: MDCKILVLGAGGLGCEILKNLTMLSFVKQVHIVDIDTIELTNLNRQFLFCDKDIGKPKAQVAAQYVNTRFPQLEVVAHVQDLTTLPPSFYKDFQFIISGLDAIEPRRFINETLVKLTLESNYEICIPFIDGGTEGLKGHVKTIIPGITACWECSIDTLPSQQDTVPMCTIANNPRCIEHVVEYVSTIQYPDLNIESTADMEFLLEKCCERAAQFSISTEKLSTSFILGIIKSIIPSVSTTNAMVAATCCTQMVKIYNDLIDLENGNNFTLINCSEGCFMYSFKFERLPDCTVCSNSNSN
As to the kind of experiment: ITC, peptide titrated into yE1. As to the method: (§1) To gain insights into mechanistic roles of Ubc12 N-terminal acetylation, isothermal titration calorimetry (ITC) was used to quantify interactions with peptides corresponding to the N-termini of yeast or human Ubc12.
(§2) Protein samples were buffer matched by desalting over a NAP-5 column (GE Healthcare) into 50 mM Hepes, 125 mM NaCl, 1 mM BME, pH 7.0 (ITC buffer). Peptides were dissolved by weight to a final concentration of 10 mM in ITC buffer and diluted further in ITC buffer as required for the experiments. […] The peptide ligands (4 mM) were constantly injected (1.5 μl). The interval time between each injection was 3 minutes and the duration of each injection was 3 seconds. […] Peptide ligands (250 μM) were constantly injected (2.5 μl). The interval time between each injection was three minutes and the duration of each injection was 5 seconds. […] The interval time between each injection was 3 minutes and the duration of each injection was 5 seconds. Obtained spectra were evaluated using Origin (V 7.0) to determine heats of binding and Kd values.
A general note: In ITC the heat of successive injections is recorded.

Experiment [2] concerns the target T2, yDcn1^P (potentiating neddylation / PONY domain of Saccharomyces cerevisiae Dcn1) (Saccharomyces cerevisiae, UniProt Q12395 70-269).
T2 construct: NEDD8 co-E3; Expressed in E. coli
T2 sequence: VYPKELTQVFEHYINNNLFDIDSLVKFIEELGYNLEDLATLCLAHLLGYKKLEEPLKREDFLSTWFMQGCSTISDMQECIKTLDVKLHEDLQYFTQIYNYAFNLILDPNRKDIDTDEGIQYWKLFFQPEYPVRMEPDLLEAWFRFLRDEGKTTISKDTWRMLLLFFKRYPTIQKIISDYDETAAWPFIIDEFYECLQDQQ
In words: ITC, peptide titrated into yDcn1^P. The procedure:
as §1, §2

In experiment [3] the target is T3, hDcn1^P (potentiating neddylation / PONY domain of human Dcn1, DCUN1D1) (Homo sapiens, UniProt Q96GG9 62-259).
T3 construct: also called DCUN1D1^P; SCCRO PONY domain
As to the kind of experiment: ITC, peptide titrated into Dcn PONY domain. As to the method: as §2

The target in experiment [4] is hDcn2^P (PONY domain of human DCUN1D2) (Homo sapiens, UniProt Q6PH85 62-259). In words: ITC, peptide titrated into Dcn PONY domain. As to the method: as §2
In experiment [5] the target is T4, hDcn3^P (PONY domain of human DCUN1D3) (Homo sapiens, UniProt Q8IWE4 86-304).
T4 sequence: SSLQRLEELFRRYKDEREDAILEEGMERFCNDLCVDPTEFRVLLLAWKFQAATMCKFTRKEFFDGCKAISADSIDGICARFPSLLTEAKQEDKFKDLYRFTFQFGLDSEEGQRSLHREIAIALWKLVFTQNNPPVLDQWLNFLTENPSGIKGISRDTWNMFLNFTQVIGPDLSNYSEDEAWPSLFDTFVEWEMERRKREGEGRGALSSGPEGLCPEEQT
In words: ITC, peptide titrated into Dcn PONY domain. The procedure:
as §2

Experiment [6] deals with T3, hDcn1^P (potentiating neddylation / …). As to the kind of experiment: ITC, two-site fit, first value. As to the method: as §2

Starred links: 1 amine or outer side, 2 acyl side, 3 side chain; linkers in the order of their positions; H or OH if unused. Positions of bridges follow the written chain, without caps; N, C: chain ends. Non-standard residues stand in square brackets, D forms with d. *: point of attachment. αMeNva(5-ylidene) = C[C@@](CCC=[*:3])(N[*:1])C(=O)[*:2]; S8 = C=CCCCCCC[C@](C)(N)C(=O)O; SeMet = C[Se]CC[C@H](N)C(=O)O; S5 = C=CCCC[C@](C)(N)C(=O)O; Nle = CCCC[C@H](N)C(=O)O; For = O=C*

T3 sequence (Q96GG9 62-259): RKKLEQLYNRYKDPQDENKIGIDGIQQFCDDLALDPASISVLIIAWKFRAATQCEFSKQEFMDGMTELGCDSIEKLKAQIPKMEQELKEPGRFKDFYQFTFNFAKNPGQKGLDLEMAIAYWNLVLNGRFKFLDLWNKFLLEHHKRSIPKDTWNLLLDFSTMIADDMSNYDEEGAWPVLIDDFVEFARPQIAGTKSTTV
hDcn2^P (PONY domain of human DCUN1D2), sequence (Q6PH85 62-259 limits assumed): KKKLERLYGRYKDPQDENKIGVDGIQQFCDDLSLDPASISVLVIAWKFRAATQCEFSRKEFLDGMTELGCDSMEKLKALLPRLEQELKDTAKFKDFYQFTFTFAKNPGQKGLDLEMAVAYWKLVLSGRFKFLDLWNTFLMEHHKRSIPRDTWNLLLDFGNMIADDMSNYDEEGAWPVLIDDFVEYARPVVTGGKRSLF

As to Ac-LKLRQLQKKKQKENENSSSIQPN-NH2 (Synthetic peptide lacking Met1) [Acetyl-yUbc12^2-24 peptide], in experiment [1], binding was characterised by a dissociation constant (Kd) of 1580 nM, the “N (stoichiometry)” value is 0.92, the ΔH was -9.62 kcal/mol and the ΔS is -7.21 cal/mol/deg. Moreover, in experiment [2], the ΔH was found to be 3.76 kcal/mol and the ΔS worked out at 33.4 cal/mol/deg.
Take Ac-[SeMet]IKL[S5]SLK[S5]QKK-NH2 (staple 5-9, Stapled synthetic peptide) [hUbc12^Ac1-12 (SeMet) 5, 9]: the Kd in experiment [3] was 182 nM.

B1: hUbc12^Ac1-12 (NorLeu) 5, 9 (peptide)
peptide: Ac-[Nle]IKL[S5]SLK[S5]QKK-NH2
modifications: staple 5-9
SMILES: CCCC[C@H](NC(C)=O)C(=O)N[C@H](C(=O)N[C@@H](CCCCN)C(=O)N[C@@H](CC(C)C)C(=O)N[C@@]1(C)CCCC=CCCC[C@@](C)(C(=O)N[C@@H](CCC(N)=O)C(=O)N[C@@H](CCCCN)C(=O)N[C@@H](CCCCN)C(N)=O)NC(=O)[C@H](CCCCN)NC(=O)[C@H](CC(C)C)NC(=O)[C@H](CO)NC1=O)[C@@H](C)CC
notes: Stapled synthetic peptide
For B1, in experiment [3], the Kd came to 440 nM.
The same measure, in the same setting: next, Ac-MIKLFKLKQEKK-NH2 (bridge 6-10; also: K6-E10 staple, chemistry not given here, Stapled synthetic peptide) [hUbc12^Ac1-12 (Met) KE 6, 10]: 483 nM; XIKLFSLKQQKK (N-terminal acetyl; norleucine at position 1 in place of Met; C-terminal amide, Synthetic peptide) [hUbc12^Ac1-12 (NorLeu)]: 5600 nM.

B2: yUbc12^Ac1-12 (NorLeu) 5, 9 (peptide)
peptide: Ac-[Nle]LKL[S5]QLQ[S5]KKQ-NH2
modifications: staple 5-9
SMILES: CCCC[C@H](NC(C)=O)C(=O)N[C@@H](CC(C)C)C(=O)N[C@@H](CCCCN)C(=O)N[C@@H](CC(C)C)C(=O)N[C@@]1(C)CCCC=CCCC[C@@](C)(C(=O)N[C@@H](CCCCN)C(=O)N[C@@H](CCCCN)C(=O)N[C@@H](CCC(N)=O)C(N)=O)NC(=O)[C@H](CCC(N)=O)NC(=O)[C@H](CC(C)C)NC(=O)[C@H](CCC(N)=O)NC1=O
notes: Stapled synthetic peptide
Consider B2, for which the dissociation constant (Kd) was determined as 418 nM in experiment [3] and 515 nM in experiment [4].

B3: hUbc12^Formyl-1-26 (peptide)
peptide: For-MIKLFSLKQQKKEEESAGGTKGSSKK-NH2
SMILES: CC[C@H](C)[C@H](NC(=O)[C@H](CCSC)NC=O)C(=O)N[C@@H](CCCCN)C(=O)N[C@@H](CC(C)C)C(=O)N[C@@H](Cc1ccccc1)C(=O)N[C@@H](CO)C(=O)N[C@@H](CC(C)C)C(=O)N[C@@H](CCCCN)C(=O)N[C@@H](CCC(N)=O)C(=O)N[C@@H](CCC(N)=O)C(=O)N[C@@H](CCCCN)C(=O)N[C@@H](CCCCN)C(=O)N[C@@H](CCC(=O)O)C(=O)N[C@@H](CCC(=O)O)C(=O)N[C@@H](CCC(=O)O)C(=O)N[C@@H](CO)C(=O)N[C@@H](C)C(=O)NCC(=O)NCC(=O)N[C@H](C(=O)N[C@@H](CCCCN)C(=O)NCC(=O)N[C@@H](CO)C(=O)N[C@@H](CO)C(=O)N[C@@H](CCCCN)C(=O)N[C@@H](CCCCN)C(N)=O)[C@@H](C)O
notes: Synthetic peptide; also called Formyl-hUbc12^1-26
Consider B3, for which the Kd in experiment [3] is 9700 nM.

B4: hUbe2f^Ac1-25 (peptide)
peptide: Ac-MLTLASKLKRDDGLKGSRTAATASD-NH2
notes: Synthetic peptide of the N-terminus of human Ube2f; also called Acetyl-hUbe2f^1-25
B4 showed a Kd in experiment [5] of 2000 nM.

B5: yUbc12^Ac1-12 (NorLeu) (peptide)
peptide: Ac-[Nle]LKLRQLQKKKQ-NH2
SMILES: CCCC[C@H](NC(C)=O)C(=O)N[C@@H](CC(C)C)C(=O)N[C@@H](CCCCN)C(=O)N[C@@H](CC(C)C)C(=O)N[C@@H](CCCNC(=N)N)C(=O)N[C@@H](CCC(N)=O)C(=O)N[C@@H](CC(C)C)C(=O)N[C@@H](CCC(N)=O)C(=O)N[C@@H](CCCCN)C(=O)N[C@@H](CCCCN)C(=O)N[C@@H](CCCCN)C(=O)N[C@@H](CCC(N)=O)C(N)=O
Turning to B5, the Kd in experiment [3] came to 628 nM; in experiment [4], 793 nM.

B6: hUbc12^Ac1-12 (Met) RR 6, 10 (peptide)
peptide: Ac-MIKLF[(R)‑2‑(4-pentenyl)alanine]LKQ[(R)‑2‑(4-pentenyl)alanine]KK-NH2
modifications: staple 6-10
notes: Stapled synthetic peptide; 'RR' is not explained in the text
For the molecule B6, the Kd in experiment [6] came to 340 nM.
As for Ac-MIK(Ac)LFSLKQQKKEEESAGGTKGSSKK-NH2 (Synthetic peptide) [hUbc12^Ac1-Ac3-26], in experiment [3], the Kd stood at 4600 nM.

B7: Acetyl-yUbc12^1-24 peptide (peptide)
peptide: Ac-MLKLRQLQKKKQKENENSSSIQPN-NH2
notes: Synthetic peptide; also called yUbc12^Ac1-24
As for B7, in experiment [1], the Kd turned out to be 16 nM, the “N (stoichiometry)” value was found to be 0.99, the ΔH was -11.3 kcal/mol and the ΔS is -3.8 cal/mol/deg. Besides, in experiment [2], the Kd is 444 nM, the ΔH was 4.15 kcal/mol and the ΔS was found to be 43.6 cal/mol/deg.
Take Ac-MIKLKSLKEQKK-NH2 (bridge 5-9; also: K5-E9 staple, chemistry not given here, Stapled synthetic peptide) [hUbc12^Ac1-12 (Met) KE 5, 9]: the dissociation constant (Kd) in experiment [3] was 1060 nM.

B8: hUbc12^Ac1-12 (Met) Oct:But 6, 10 (peptide)
peptide: Ac-MIKLF[S8]LKQ[αMeNva(5-ylidene)]KK-NH2
modifications: staple 6-10
notes: Stapled synthetic peptide; by the label the octenyl- and butenyl-alanine residues stand in the reverse order of the But:Oct peptide
With B8, the Kd in experiment [3] worked out at 129 nM.

B9: hUbc12^Ac1-12 (Met) 5, 9 (peptide)
peptide: Ac-MIKL[S5]SLK[S5]QKK-NH2
modifications: staple 5-9
notes: also called Acetyl-hUbc12^1-12(5:9Staple)
As for B9, the Kd in experiment [3] worked out at 153 nM.
